The source of these data is patent US20210246218A1 (LYVGEN BIOPHARMA SUZHOU, published 2021).

Where “and” joins values, the source holds several entries; their conditions need not be identical. Equal values may be shown once.

Test [1] addresses T1, Ly051.
T1 chain: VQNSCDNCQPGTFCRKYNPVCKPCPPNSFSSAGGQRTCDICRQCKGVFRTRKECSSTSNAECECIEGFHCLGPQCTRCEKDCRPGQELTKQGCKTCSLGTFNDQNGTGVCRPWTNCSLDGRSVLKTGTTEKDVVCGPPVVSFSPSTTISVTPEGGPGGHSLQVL
In words: ELISA, CD137 protein coated, clone 3712 titrated; flat curve, fit marked ~ (see non_binding). On the procedure: (§1) For the data shown in FIGS. 16C-D, chimeric CD137 receptor protein samples were diluted in DPBS to 5 μg/mL and then coated onto an ELISA plate (Corning, Catalog number: 9018, high binding) at 50 μL (0.25 μg) per well, and incubated at 4° C. overnight. The plate was decanted and washed once; assay diluent was added at 200 μL/well. After a 1-hour incubation at room temperature, the plate was washed with PBST one time. […] The plate was incubated 1 hour at room temperature and then washed three times with PBST. Goat anti-human IgG-H+L HRP-conjugated at 1:100,000 dilution or goat anti-mouse IgG (H+L) secondary antibody, HRP, 10 at 1:50,000 dilution was added to the plate at 100 μL/well. The plate was incubated 1 hour at room temperature followed by washing with PBST four times. The TMB substrate solution was added 100 μL/well. The color was permitted to develop for 15 minutes and then 100 μL/well 2N H2SO4 was added to terminate the reaction. Absorbance at 450 nm and 620 nm was determined by a Tecan F200 Pro reader.
Background: ELISA stands for enzyme-linked immunosorbent assay.

Test [2] concerns the target T2, human CD137 on cells (human, UniProt Q07011 24-255).
T2 construct: whole, on cells; also called CHO-human CD137; CHO cells over-expressing human CD137
In words: flow cytometry on human PBMC pre-activated with anti-CD3, gate on CD8+ T cells (endogenous CD137). On the technique in general: In flow cytometry, cells or beads pass a laser one at a time.
Experimental: To obtain activated T cells in human PBMC, a 24-well plate was coated with 300 μL DPBS containing 2 μg/mL AffiniPure goat anti-mouse IgG, Fcγ fragment specific at 4° C. overnight. The plate was washed 3 times with DPBS. The antibody OKT3 was added to the plate at 1 μg/mL, 100 μL/well. The plate was incubated at 37° C. for 1 hour. A freshly thawed vial of human PBMCs was transferred into a 50 mL tube containing 25 mL pre-warmed culture medium (RPMI1640 containing 10% FBS), and spun at 250 g for 10 min The cell pellet was resuspended in 2 mL complete culture medium (culture medium containing 50 uM 2-Me) and the cell density was adjusted to 3.3*10\hat{ }6 cells/mL in the complete culture medium and then 900 μL/well cell suspension was transferred to the plate. The culture was incubated at 37° C. with 5% CO₂ for about 48 hours. After the incubation, the cells were harvested and washed once with DPBS. The cell pellet was resuspended in cold assay buffer and the cell density was adjusted to 2*10\hat{ }6 cells/mL. 100 μL of the cell suspension was transferred to a 96-well v-bottom plate. […] The plate was incubated in the dark for 30 minutes at 4° C. […] After incubation in the dark for 5 minutes at 4° C., the cells were analyzed on the flow cytometer immediately.

Test [3] concerns the target T3, human CD27 on CHO cells (human, UniProt P26842 20-260).
T3 construct: whole, on cells
Put plainly: flow cytometry on CHO cells over-expressing the target. On the procedure: (§2) The cells were resuspended in ice cold assay buffer at 2*10\hat{ }6/mL and transferred to 96-well V-bottom plate with 100 μL/well. […] The plate was incubated in the dark for 2 hours at 4° C. The cells were washed 3 times by centrifugation at 1000 g for 3 min and resuspended in 100 μL ice cold assay buffer containing goat F(ab′)₂ anti-human IgG-Fc (PE) or PE goat anti-mouse IgG antibody. The plate was incubated in the dark for another 1 hour at 4° C. The cells were washed 2 times by centrifugation at 1000 g for 3 min and resuspended in ice cold assay buffer containing 2% PFA and analyzed on the flow cytometer immediately.

In test [4] the target is T4, human B7-H4 on CHO cells (human, UniProt Q7Z7D3 25-282).
T4 construct: whole, on cells
T4 sequence (looked up): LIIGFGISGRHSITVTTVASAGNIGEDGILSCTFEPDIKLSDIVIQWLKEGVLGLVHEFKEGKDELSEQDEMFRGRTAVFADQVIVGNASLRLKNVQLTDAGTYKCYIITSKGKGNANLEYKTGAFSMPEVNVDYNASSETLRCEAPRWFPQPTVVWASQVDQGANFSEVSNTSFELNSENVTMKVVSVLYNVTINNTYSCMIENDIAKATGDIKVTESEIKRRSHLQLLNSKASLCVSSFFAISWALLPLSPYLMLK
The test is described as above. On the procedure:
as §2

Test [5] has as its target T5, human PD-L1 on CHO cells (human, UniProt Q9NZQ7 19-290).
T5 construct: whole, on cells
The test is described as above. Here is the method: as §2

For test [6], the target named is T6, human LAG-3 on CHO cells (human, UniProt P18627 23-525).
T6 construct: whole, on cells
T6 sequence (looked up): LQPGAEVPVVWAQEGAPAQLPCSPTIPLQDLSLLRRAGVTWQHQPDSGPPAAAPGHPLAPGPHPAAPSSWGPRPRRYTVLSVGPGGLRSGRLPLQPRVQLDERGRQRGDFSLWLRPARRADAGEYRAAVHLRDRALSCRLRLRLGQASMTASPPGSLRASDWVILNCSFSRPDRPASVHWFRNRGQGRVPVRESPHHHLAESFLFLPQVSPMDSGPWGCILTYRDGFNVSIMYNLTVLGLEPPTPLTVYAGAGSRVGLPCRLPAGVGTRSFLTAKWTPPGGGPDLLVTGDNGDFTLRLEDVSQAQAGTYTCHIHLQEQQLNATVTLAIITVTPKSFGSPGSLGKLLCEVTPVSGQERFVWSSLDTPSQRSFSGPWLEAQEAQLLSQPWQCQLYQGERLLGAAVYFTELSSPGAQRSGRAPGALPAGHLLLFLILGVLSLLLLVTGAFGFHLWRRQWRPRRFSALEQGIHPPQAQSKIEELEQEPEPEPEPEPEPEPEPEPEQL
The test is described as above. Here is the method:
as §2

The target in test [7] is T7, human BTLA on CHO cells (human, UniProt Q7Z6A9 31-289).
T7 construct: whole, on cells
Described as above. On the procedure:
as §2

Test [8] concerns the target T8, cynomolgus monkey CD137 on cells (cynomolgus monkey, UniProt A9YYE7 24-254).
T8 construct: whole, on cells; also called CHO-cynomolgus monkey CD137
Put plainly: flow cytometry on CHO cells over-expressing cynomolgus CD137; average, n=6. Here is the method: CHO cells over-expressing human or cynomolgus monkey CD137 and CHO parental cells were harvested by centrifugation at 1000 g for 3 minutes. The cells were resuspended in ice cold assay buffer at 2*10\hat{ }6/mL and transferred to 96-well V-bottom plate with 100 μL/well. […] The plate was mixed and incubated in the dark for 2 hours at 4° C. The cells were washed 3 times by centrifugation at 1000 g for 3 min and resuspended in ice cold assay buffer containing goat F(ab′)₂ anti-human IgG-Fc (PE), 100 μL/well. The plate was incubated in the dark for another 1 hour at 4° C. The cells were washed 2 times by centrifugation at 1000 g for 3 min and resuspended in ice cold assay buffer containing 2% PFA. The cells were then subjected to the flow cytometer immediately.
Mean fluorescence intensity (MFI) was calculated from the total cell population in the FCM experiments. Graphpad 7.0, “[Agonist] vs. response—Variable slope (four parameters)” was used to plot the binding MFI in dose response and to calculate FCM binding EC₅₀ values.

The target in test [9] is T9, recombinant human CD137 receptor protein (human, UniProt Q07011 24-186).
T9 construct: Coated on ELISA plates; also called recombinant human CD137 protein
In words: ELISA, huCD137 coated, clone 3712 titrated; full sigmoid, plateau about 1.5. Here is the method: as §1

The target in test [10] is T2, human CD137 on cells. Put plainly: cell-based or functional assay.

T8 sequence (A9YYE7 entry or part of it): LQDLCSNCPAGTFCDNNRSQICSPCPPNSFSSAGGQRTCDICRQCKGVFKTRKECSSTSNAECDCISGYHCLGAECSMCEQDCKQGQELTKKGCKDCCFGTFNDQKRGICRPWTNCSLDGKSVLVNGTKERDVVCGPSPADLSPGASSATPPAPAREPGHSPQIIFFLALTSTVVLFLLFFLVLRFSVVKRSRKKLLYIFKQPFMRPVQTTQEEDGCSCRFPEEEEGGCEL
T9 sequence (Q07011 24-186 limits assumed): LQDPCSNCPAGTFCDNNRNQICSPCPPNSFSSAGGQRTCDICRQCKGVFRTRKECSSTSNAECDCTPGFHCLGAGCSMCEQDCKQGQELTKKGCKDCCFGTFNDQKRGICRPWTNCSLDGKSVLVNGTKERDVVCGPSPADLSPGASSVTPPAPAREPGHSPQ
T3 sequence (P26842 20-260): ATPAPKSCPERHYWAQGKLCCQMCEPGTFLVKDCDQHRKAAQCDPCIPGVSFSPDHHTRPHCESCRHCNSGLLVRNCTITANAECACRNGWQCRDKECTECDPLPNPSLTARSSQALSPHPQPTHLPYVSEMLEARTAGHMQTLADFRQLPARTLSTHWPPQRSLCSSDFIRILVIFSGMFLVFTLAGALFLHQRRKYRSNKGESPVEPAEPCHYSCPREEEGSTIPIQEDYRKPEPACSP
T5 sequence (Q9NZQ7 19-290): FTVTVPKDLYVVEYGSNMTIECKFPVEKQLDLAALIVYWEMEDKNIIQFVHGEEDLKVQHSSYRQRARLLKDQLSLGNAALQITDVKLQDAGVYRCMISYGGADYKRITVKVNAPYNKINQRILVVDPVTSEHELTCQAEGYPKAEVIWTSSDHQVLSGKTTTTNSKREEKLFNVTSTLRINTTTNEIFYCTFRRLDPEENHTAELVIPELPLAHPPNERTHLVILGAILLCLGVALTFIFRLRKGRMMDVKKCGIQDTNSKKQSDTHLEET

B1: Clone 3712-IgG1v (IgG1v/kappa) (antibody)
heavy: QVQLVQSGAEVKKPGASVKVSCKASGYTFAGFEMHWVRQAPGQGLEWMGAIDPKTGGTDYNQKFKDRVTMTRDTSISTAYMELSRLRSDDTAVYYCARDLGYFDVWGQGTLVTVSSASTKGPSVFPLAPSSKSTSGGTAALGCLVKDYFPEPVTVSWNSGALTSGVHTFPAVLQSSGLYSLSSVVTVPSSSLGTQTYICNVNHKPSNTKVDKKVEPKSCDKTHTCPPCPAPELLGPSVFLFPPKPKDTLMISRTPEVTCVVVDVEHEDPEVKFNWYVDGVEVHNAKTKPREEQYNSTYRVVSVLTVLHQDWLNGKEYKCKVSNKALPAPIEKTISKAKGQPREPQVYTLPPSREEMTKNQVSLTCLVKGFYPSDIAVEWESNGQPENNYKTTPPVLDSDGSFFLYSKLTVDKSRWQQGNVFSCSVMHEALHNHYTQKSLSLSPGK
light: DIQMTQSPSSLSASVGDRVTITCRASQDIRSNLNWYQQKPGGAVKLLIYYTSRLHSGVPSRFSGSGSGTDYTLTISSLQPEDFATYFCQQSEKLPRTFGGGTKVEIRRTVAAPSVFIFPPSDEQLKSGTASVVCLLNNFYPREAKVQWKVDNALQSGNSQESVTEQDSKDSTYSLSSTLTLSKADYEKHKVYACEVTHQGLSSPVTKSFNRGEC
notes: copies: 2 + 2
Consider B1, for which the EC50 is approximately 0.00101 µg/mL in test [1]; 0.26 nM and 0.0369 µg/mL in test [8]; 0.0495 µg/mL in test [9]. Moreover, the 50% effective concentration (EC50 (read off the curve)) in [2] is approximately 0.03 µg/mL. Also, the binding result in test [3], in [4], in [5], in test [6] and in [7] was “no binding” in each case. The “IFN-γ secretion of human CD8+ T cells co-cultured with CHO-K1-huFcγRIIB cells and OKT3; average EC50, n=12” value in test [10] is 30.6 ng/mL and ~0.21 nM. In test [10], the “IL-8 secretion of CD137 reporter cells (GS-H2-huCD137) co-cultured with CHO-K1-huFcγRIIB cells; average EC50, n=6” value is 44.4 ng/mL and ~0.31 nM.

Usually EC50 stands for the midpoint of the concentration-response curve. As a reminder, the EC50 (read off the curve) is the midpoint of the concentration-response curve.
